Assay results as given in article PMC5099578, “A structural and functional study on the 2-C-methyl-D-erythritol-4-phosphate cytidyltransferase (IspD) from Bacillus subtilis” (Scientific Reports, 2016).

Tests used:
Experiment in all cases: purified protein
purified protein [1] = substrate: C[C@](O)(CO)[C@H](O)COP(=O)(O)O; assay type: biochemical, Bacillus subtilis; conditions: CTP co-substrate, 1 mM MgCl2, 0.1 M Tris-HCl pH 8.0, 1 mM DTT, 30 °C, MEP varied 10-400 μM, paper inconsistent: text gives 132.8 for MEP, Table 2 prints it under CTP
purified protein [2] = substrate: Nc1ccn([C@@H]2O[C@H](COP(=O)(O)OP(=O)(O)OP(=O)(O)O)[C@@H](O)[C@H]2O)c(=O)n1; assay type: biochemical, Bacillus subtilis; conditions: MEP co-substrate, 1 mM MgCl2, 0.1 M Tris-HCl pH 8.0, 1 mM DTT, 30 °C, CTP varied 10-500 μM, paper inconsistent: text gives 124.8 for CTP, Table 2 prints it under MEP
purified protein [3] = substrate: Nc1ccn([C@@H]2O[C@H](COP(=O)(O)OP(=O)(O)OP(=O)(O)O)[C@@H](O)[C@H]2O)c(=O)n1; conditions: MEP co-substrate, 1 mM MgCl2, 0.1 M Tris-HCl pH 8.0, 1 mM DTT, 30 °C, CTP varied 10-500 μM, paper inconsistent: text gives 291.5 for CTP (kcat 2307.7), Table 2 prints it under MEP (kcat 2307.2)

B1: BsIspD (Bacillus subtilis subsp. subtilis str. 168) (protein)
chain: MSYDVVIPAAGQGKRMKAGRNKLFIELKGDPVIIHTLRVFDSHRQCDKIILVINEQEREHFQQLLSDYPFQTSIELVAGGDERQHSVYKGLKAVKQEKIVLVHDGARPFIKHEQIDELIAEAEQTGAAILAVPVKDTIKRVQDLQVSETIERSSLWAVQTPQAFRLSLLMKAHAEAERKGFLGTDDASLVEQMEGGSVRVVEGSYTNIKLTTPDDLTSAEAIMESESGNKHV
notes: full length (699 bp gene, 232 residues built); pGEX-6P-1, expressed in E. coli, GST tag cut with PreScission protease; homodimer
Purified protein [1]
  Km: 132.8 ± 29 µM
  kcat: 71.2 s⁻¹
  kcat/Km: 536000 M⁻¹ s⁻¹
Purified protein [2]
  Km: 124.8 ± 19 µM
  kcat: 36.3 s⁻¹
  kcat/Km: 291000 M⁻¹ s⁻¹

B2: EcIspD (Escherichia coli K-12) (protein)
chain: ATTHLDVCAVVPAAGFGRRMQTECPKQYLSIGNQTILEHSVHALLAHPRVKRVVIAISPGDSRFAQLPLANHPQITVVDGGDERADSVLAGLKAAGDAQWVLVHDAARPCLHQDDLARLLALSETSRTGGILAAPVRDTMKRAEPGKNAIAHTVDRNGLWHALTPQFFPRELLHDCLTRALNEGATITDEASALEYCGFHPQLVEGRADNIKVTRPEDLALAEFYLTRTIHQENT
notes: pET22b, C-terminal His6 tag removed with thrombin; expressed in E. coli BL21 (DE3)
Purified protein [3]
  Km: 291.5 ± 44 µM
  kcat: 38.5 s⁻¹
  kcat/Km: 132000 M⁻¹ s⁻¹
